This is an account of results in the supplement of paper PMC10219994.

± gives the standard deviation of the averaged measurements.

The chains are these.
B1: library; a variant is named by its letters at N, in order (parent)
chain: GAGACCGCAACTGAAAAGTTGTGGNNNNNATAGTGAGTCGCTGCCTGCAAAGACACAACT

In this data set the parent is B1. Briefly: ligation selection enrichment (abundance after / before one-round selection) (fold); higher = more template-directed ligation activity. The settings on record: with T7Psub CACGGAUGCUAAUACGACUCACUAUA; MgCl2 25 mM; 42 °C; 4 h; pH 8.5. The essentials: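 Two independent reactions combined a T7-transcribed RNA ligase library with five randomized core positions (0.75 μM) and RNA substrate (6 μM) in 50 mM EPPS pH 8.5, 25 mM MgCl2, run for 4 h at 42 °C. The ligated products were sequenced on a MiSeq, and only reads with quality ≥30 at all randomized positions were counted. Enrichment is the abundance after ligation divided by the abundance before ligation.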
Consider CCTAG, for which the ligation selection enrichment came to 0.356 ± 0.004.

On to GGAAA, for which the ligation selection enrichment is 0.282 ± 0.011.

In the case of GGAAT, the ligation selection enrichment worked out at 2.23 ± 0.17.

Consider GGAAC, for which the ligation selection enrichment came out at 0.226 ± 0.0027.

On to GGAAG, for which the ligation selection enrichment was found to be 0.341 ± 0.011.

As to ACGTG, the ligation selection enrichment was found to be 0.17 ± 0.0072.

Take ACGTT: the ligation selection enrichment turned out to be 0.149 ± 0.0019.

In the case of ACGTA, the ligation selection enrichment was determined as 0.221 ± 0.0031.

Turning to ACGTC, the ligation selection enrichment was determined as 0.172 ± 0.045.

For the variant CGTGA, the ligation selection enrichment came to 0.58 ± 0.047.

For the variant CGTGG, the ligation selection enrichment was 0.261 ± 0.044.

As to CGTGT, the ligation selection enrichment was 0.172 ± 0.066.

Turning to CGTGC, the ligation selection enrichment turned out to be 0.196 ± 0.039.

With GGACT, the ligation selection enrichment is 0.703 ± 0.31.

As to GGACA, the ligation selection enrichment worked out at 0.256 ± 0.046.

GGACC: the ligation selection enrichment was determined as 0.232 ± 0.06.

For the variant GGACG, the ligation selection enrichment was 0.725 ± 0.049.

In the case of TGACT, the ligation selection enrichment worked out at 0.683 ± 0.3.

TGACA: the ligation selection enrichment is 0.19 ± 0.052.

In the case of TGACC, the ligation selection enrichment was 0.183 ± 0.0057.

On to TGACG, for which the ligation selection enrichment is 0.49 ± 0.13.

Take AGCCT: the ligation selection enrichment worked out at 0.307 ± 0.093.

Consider AGCCC, for which the ligation selection enrichment came to 0.167 ± 0.05.

Turning to AGCCG, the ligation selection enrichment amounted to 0.709 ± 0.025.

On to AGCCA, for which the ligation selection enrichment amounted to 0.161 ± 0.018.

For the variant GCTGA, the ligation selection enrichment came out at 0.315 ± 0.015.

As to GCTGT, the ligation selection enrichment stood at 0.15 ± 0.068.

In the case of GCTGC, the ligation selection enrichment is 0.1333 ± 0.00076.

In the case of GCTGG, the ligation selection enrichment came to 0.462 ± 0.073.

As for TGGGA, the ligation selection enrichment worked out at 0.263 ± 0.038.

For the variant TGGGG, the ligation selection enrichment was found to be 0.228 ± 0.049.

Take TGGGC: the ligation selection enrichment was 0.171 ± 0.022.

Turning to TGGGT, the ligation selection enrichment came to 0.417 ± 0.23.

Turning to GGTGG, the ligation selection enrichment was 0.374 ± 0.12.

Turning to GGTGT, the ligation selection enrichment is 0.181 ± 0.16.

Take GGTGA: the ligation selection enrichment was found to be 0.641 ± 0.064.

With GGTGC, the ligation selection enrichment stood at 0.226 ± 0.03.

For GGTAA, the ligation selection enrichment came out at 0.348 ± 0.1.

As to GGTAG, the ligation selection enrichment was found to be 1.05 ± 0.028.

As to GGTAT, the ligation selection enrichment is 5.34 ± 1.2.

On to GGTAC, for which the ligation selection enrichment is 0.479 ± 0.053.

ACTCC: the ligation selection enrichment amounted to 0.321 ± 0.011.

Take ACTCT: the ligation selection enrichment amounted to 0.248 ± 0.12.

Consider ACTCG, for which the ligation selection enrichment amounted to 0.535 ± 0.046.

As to ACTCA, the ligation selection enrichment was 0.217 ± 0.031.

With TGCTG, the ligation selection enrichment is 0.17 ± 0.017.

Regarding TGCTC, the ligation selection enrichment amounted to 0.117 ± 0.022.

Turning to TGCTA, the ligation selection enrichment was 0.17 ± 0.012.

As for TGCTT, the ligation selection enrichment amounted to 0.0805 ± 0.021.

On to CGGCC, for which the ligation selection enrichment came out at 0.134 ± 0.031.

Turning to CGGCT, the ligation selection enrichment worked out at 0.432 ± 0.15.

Take CGGCG: the ligation selection enrichment worked out at 0.328 ± 0.1.

Regarding CGGCA, the ligation selection enrichment is 0.177 ± 0.036.

Turning to GGCAT, the ligation selection enrichment was 5.15 ± 1.1.

Take GGCAA: the ligation selection enrichment was determined as 0.423 ± 0.11.

Take GGCAG: the ligation selection enrichment is 0.55 ± 0.028.

As for GGCAC, the ligation selection enrichment is 0.395 ± 0.016.

For the variant ACTGG, the ligation selection enrichment stood at 0.421 ± 0.0057.

ACTGA: the ligation selection enrichment turned out to be 0.286 ± 0.048.

Turning to ACTGC, the ligation selection enrichment is 0.137 ± 0.025.

Consider ACTGT, for which the ligation selection enrichment was 0.13 ± 0.074.

Take TGCAT: the ligation selection enrichment was 3.27 ± 0.44.

For TGCAG, the ligation selection enrichment came out at 0.216 ± 0.0033.

On to TGCAC, for which the ligation selection enrichment came out at 0.235 ± 0.059.

On to TGCAA, for which the ligation selection enrichment turned out to be 0.289 ± 0.065.

For GCGTG, the ligation selection enrichment was 0.272 ± 0.018.

With GCGTC, the ligation selection enrichment amounted to 0.231 ± 0.09.

GCGTT: the ligation selection enrichment worked out at 0.288 ± 0.12.

For GGGGA, the ligation selection enrichment came to 0.608 ± 0.042.

Regarding GGGGT, the ligation selection enrichment was 0.345 ± 0.11.

Consider GGGGG, for which the ligation selection enrichment turned out to be 0.405 ± 0.028.

As for GGGGC, the ligation selection enrichment stood at 0.21 ± 0.0028.

In the case of CGAAT, the ligation selection enrichment was determined as 2.11 ± 0.22.

For CGAAC, the ligation selection enrichment was found to be 0.246 ± 0.0029.

With CGAAG, the ligation selection enrichment was found to be 0.4199 ± 0.0032.

In the case of CGAAA, the ligation selection enrichment came to 0.31 ± 0.015.

On to TTAAA, for which the ligation selection enrichment came out at 0.329 ± 0.06.

For the variant TGGCG, the ligation selection enrichment was 0.345 ± 0.019.

Consider TGGCC, for which the ligation selection enrichment amounted to 0.286 ± 0.041.

Turning to TGGCA, the ligation selection enrichment was 0.252 ± 0.025.

For the variant TGGCT, the ligation selection enrichment was determined as 0.75 ± 0.2.

Regarding TCTGG, the ligation selection enrichment was 0.417 ± 0.035.

As for TCTGA, the ligation selection enrichment was determined as 0.256 ± 0.023.

On to TCTGT, for which the ligation selection enrichment was 0.0815 ± 0.058.
